T1: human IL-2Rβ (human, UniProt P14784 27-239)
T1 sequence (looked up): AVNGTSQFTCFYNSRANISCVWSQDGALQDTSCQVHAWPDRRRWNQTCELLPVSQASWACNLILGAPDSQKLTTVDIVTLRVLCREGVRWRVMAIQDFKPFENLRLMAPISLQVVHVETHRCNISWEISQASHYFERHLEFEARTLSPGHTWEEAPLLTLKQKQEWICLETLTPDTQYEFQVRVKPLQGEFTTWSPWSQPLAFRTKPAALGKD

T2: human gamma (γ) common chain expressed on CHO cells (human, UniProt P31785 23-369)
T2 construct: whole, on cells; Control protein; also called human IL-2R-γ common subunit; human γ-common
T2 sequence (looked up): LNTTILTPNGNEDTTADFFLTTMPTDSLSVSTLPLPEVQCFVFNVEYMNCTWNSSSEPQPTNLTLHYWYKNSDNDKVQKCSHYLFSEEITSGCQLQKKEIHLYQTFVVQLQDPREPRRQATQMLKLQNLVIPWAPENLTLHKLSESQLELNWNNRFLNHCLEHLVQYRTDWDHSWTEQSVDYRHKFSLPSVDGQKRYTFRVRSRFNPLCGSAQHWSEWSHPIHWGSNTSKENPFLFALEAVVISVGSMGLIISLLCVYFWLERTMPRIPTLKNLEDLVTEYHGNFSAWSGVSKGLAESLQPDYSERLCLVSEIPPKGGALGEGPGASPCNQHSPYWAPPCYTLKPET


Experiments:
[1] = target: T3, rat IL-21R expressed on cells (rat); experiment: cell-based ELISA on CHO cells transiently expressing rat IL-21R; HRP anti-human IgG, A450
T3 construct: whole, on cells
Description: (§1) FIG. 6(a-l) depicts the binding of 21 anti-IL-21R IgGs to CHO cells transiently expressing human IL-21R (FIGS. 6a-c), rat IL-21R (FIGS. 6d-f), cynomolgus monkey IL-21R (FIGS. 6g-i), and human gamma common chain (FIGS. 6j-1). CHO cells were transiently transfected with IL-21R or the control gamma common chain, and binding was detected with HRP-conjugated anti-human IgG in a cell-based ELISA.
(§2) A subset of binding proteins was tested for binding to rat, cynomolgus monkey, human IL-21R, or human IL-2R-γ common subunit expressed transiently on the surfaces of CHO-PA-Dukx cells. Cells were transfected 48 hr prior to the assay. On the day of the assay, cells were washed gently 5× in PBS containing 0.9 mM CaCl₂ and 0.45 mM MgCl₂ (PBS/CaMg) on an automated plate washer (Titertek, Huntsville, Ala.), and blocked for 1 hr at RT in PBS/CaMg/5% nonfat dry milk. Conditioned media from transiently expressed anti-IL-21R IgGs were serially diluted in blocking buffer and added to the cells in the blocked plates for 1 hr at RT. Cells were washed 5× with PBS/CaMg and then incubated with horseradish peroxidase-conjugated anti-human IgG for 1 hr at RT. Cells were then washed 10× in PBS/CaMg and all of the wash buffer was removed. Cells were incubated with 100 μl TMB until the color reaction reached saturation, stopped with 100 μl of 0.18 M H₂SO₄, and read at A450 on a Perkin Elmer ENVISION™ plate reader.

[2] = target: T1, human IL-2Rβ; experiment: SPR, Ab captured
Description: (§3) The specificity of binding of a subset of transiently expressed anti-IL-21R binding proteins (here antibodies) was tested on a BIACORE™ 2000 surface plasmon resonance instrument. Anti-human-IgG, anti-murine immunoglobulin antibodies, and murine IL-21R-H/F were immobilized onto a research-grade carboxymethyl-dextran chip (CM5) using standard amine coupling. The sensor chip surface was activated with EDC/NHS for 7 min at a flow rate of 20 μl/min. The first flow cell was used as reference surface to correct for bulk refractive index, matrix effects, and nonspecific binding. […] Remaining activated groups were blocked with 1.0 M ethanolamine (pH 8.0). The molecular weights of the anti-human IgG and the anti-murine IgG were both 150 kD, and the molecular weight of the IL-21R monomer was 27 kD.
(§4) Conditioned media containing anti-IL-21R antibodies and antibody controls (murine anti-human IL-2Rβ and murine anti-human IL-4R(R&D Systems, Minneapolis, Minn.); human anti-human IL-13 (Wyeth, Cambridge, Mass.)) were diluted in HBS/EP buffer supplemented with 0.2% bovine serum and injected onto all four flow cells of the BIACORE™ chip, capturing 500-700 (RU) of antibody on the species-appropriate capture antibody. Following a 5 sec washing period, 50 nM solutions of a positive control protein (murine IL-21R-H/F), two human proteins related to IL-21R (human IL-2Rβ and human sIL-4R(R&D Systems)), or an unrelated His/FLAG-tagged protein (human IL-13-H/F) were injected over the captured antibodies on the chip. The association and dissociation phases were monitored for 120 and 180 sec, respectively, followed by two 5 μl injections of glycine (pH 1.5) to regenerate a fully active capturing surface. All binding experiments were done at 25° C. in HBS/EP buffer. Blank and buffer effects were subtracted for each sensorgram using double referencing.

[3] = target: T4, human IL-13-His/FLAG (human, UniProt P35225 35-146, limits assumed); experiment: SPR, Ab captured
T4 construct: Unrelated His/FLAG-tagged control; also called human IL-13-H/F
T4 sequence (P35225 35-146 limits assumed): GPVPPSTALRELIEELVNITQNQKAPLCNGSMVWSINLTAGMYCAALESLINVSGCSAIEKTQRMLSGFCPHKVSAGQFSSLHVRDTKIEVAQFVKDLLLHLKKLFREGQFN
Description: as §3, §4

[4] = target: T5, human soluble IL-4R (human, UniProt P24394 26-232, limits assumed); experiment: SPR, Ab captured
T5 construct: also called human sIL-4R
Description: as §3, §4

[5] = target: T6, human IL-21R expressed on cells (human, UniProt Q9HBE5 20-538); experiment: cell ELISA, CHO cells
T6 construct: also called human IL-21R-BaF3; human IL-21R-TF1
T6 sequence (Q9HBE5 20-538 limits assumed): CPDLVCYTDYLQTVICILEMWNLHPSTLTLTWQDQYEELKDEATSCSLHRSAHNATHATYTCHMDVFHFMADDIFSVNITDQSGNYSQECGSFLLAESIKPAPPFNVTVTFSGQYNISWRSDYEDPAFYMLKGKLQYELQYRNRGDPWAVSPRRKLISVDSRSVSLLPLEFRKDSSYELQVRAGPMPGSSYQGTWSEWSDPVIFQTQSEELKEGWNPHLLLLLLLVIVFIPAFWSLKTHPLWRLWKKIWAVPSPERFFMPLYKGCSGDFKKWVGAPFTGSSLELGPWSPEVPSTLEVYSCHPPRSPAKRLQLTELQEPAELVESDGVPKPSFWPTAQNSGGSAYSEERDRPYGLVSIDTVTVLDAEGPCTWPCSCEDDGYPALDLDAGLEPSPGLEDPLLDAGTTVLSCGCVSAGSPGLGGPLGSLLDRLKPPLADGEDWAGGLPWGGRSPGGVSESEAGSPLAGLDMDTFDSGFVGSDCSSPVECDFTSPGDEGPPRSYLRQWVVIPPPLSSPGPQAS
Description: as §2

[6] = target: T7, cynomolgus monkey IL-21R expressed on cells (cynomolgus monkey, UniProt G7Q0S8 41-559); experiment: cell ELISA, CHO cells
T7 construct: whole, on cells
Description: as §2

[7] = target: T3, rat IL-21R expressed on cells; experiment: cell ELISA, CHO cells
Description: as §2

[8] = target: T6, human IL-21R expressed on cells; experiment: cell-based or functional assay
[9] = target: murine IL-21R expressed on cells (murine, UniProt Q9JHX3 20-529); experiment: cell-based or functional assay
murine IL-21R expressed on cells, sequence (Q9JHX3 20-529 limits assumed): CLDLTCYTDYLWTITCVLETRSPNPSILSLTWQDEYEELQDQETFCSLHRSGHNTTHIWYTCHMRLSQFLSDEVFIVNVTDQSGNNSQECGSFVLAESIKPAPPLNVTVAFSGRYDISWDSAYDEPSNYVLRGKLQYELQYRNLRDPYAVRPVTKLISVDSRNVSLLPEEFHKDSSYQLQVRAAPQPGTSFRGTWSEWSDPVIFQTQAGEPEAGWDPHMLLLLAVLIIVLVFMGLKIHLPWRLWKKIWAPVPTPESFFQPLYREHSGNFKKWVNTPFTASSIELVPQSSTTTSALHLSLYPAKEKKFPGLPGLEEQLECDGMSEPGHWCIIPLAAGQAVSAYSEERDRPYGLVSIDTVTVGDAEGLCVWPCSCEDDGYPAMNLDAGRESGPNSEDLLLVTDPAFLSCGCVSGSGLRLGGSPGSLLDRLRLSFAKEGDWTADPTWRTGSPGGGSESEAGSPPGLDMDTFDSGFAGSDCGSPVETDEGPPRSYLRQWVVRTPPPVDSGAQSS

[10] = target: T2, human gamma (γ) common chain expressed …; experiment: cell-based ELISA on CHO cells transiently expressing human gamma common chain; HRP anti-human IgG, A450
Description: as §1, §2

[11] = target: T2, human gamma (γ) common chain expressed …; experiment: cell ELISA, CHO cells
Description: as §2

[12] = target: T7, cynomolgus monkey IL-21R expressed on …; experiment: cell-based ELISA on CHO cells transiently expressing cynomolgus monkey IL-21R; HRP anti-human IgG, A450
Description: as §1, §2

[13] = target: T6, human IL-21R expressed on cells; experiment: cell-based ELISA on CHO cells transiently expressing human IL-21R; HRP anti-human IgG, A450
Description: as §1, §2

Row | EC50 (read off the curve) [1] [nM] | binding result [2] | binding result [3] | binding result [4] | A450 (13 nM Ab) [5] [A450] | A450 (13 nM Ab) [6] [A450] | A450 (13 nM Ab) [7] [A450] | Human IL-21R-BaF3 Proliferation IC50 [8] [nM] | Human IL-21R-TF1 Proliferation IC50 [8] [nM] | Murine IL-21R-BaF3 Proliferation IC50 [9] [nM] | binding result [10] | A450 (13 nM Ab) [11] [A450] | EC50 (read off the curve) [12] [nM] | EC50 (read off the curve) [13] [nM] | Binder
1 | ~0.8 | no binding (tested: 50 nM) | no binding (tested: 50 nM) | no binding (tested: 50 nM) | 1.26 | 1.42 | 1.11 | 0.56 | 2.28 | 0.04 |  |  |  |  | AbE (antibody, IgG1, V domains shown, As for AbA: IgG1/lambda, CDR3 graft, residue limits derived; also called VHP/VL14) VH: QVQLQESGPGLVKPSETLSLTCAVSGYSISSGYYWGWIRQPPGKGLEWIGSISHTGNTYYNPPLKSRVTISVDTSKNQFSLKLSSVTAADTAVYYCARGGGISRPEYWGQGTLVTVSS VL: SSELTQDPAVSVALGQTVRITCQGDSLRTYYASWYQQKPGQAPVLVIYGKHKRPSGIPDRFSGSSSGNTASLTITGAQAEDEADYYCMARSRKGNPHVLFGGGTQLTVL
2 | ~1 | no binding (tested: 50 nM) | no binding (tested: 50 nM) | no binding (tested: 50 nM) | 1.36 | 1.34 | 1.18 | 0.98 | 4 | 0.079 | no binding (tested: 40 nM) | 0.108 | ~2 |  | AbK (antibody, IgG1, V domains shown, As for AbA: IgG1/lambda, CDR3 graft, residue limits derived; also called VH3/VL3) VH: QVQLQESGPGLVKPSETLSLTCAVSGYSISSGYYWGWIRQPPGKGLEWIGSISHTGNTYYNPPLKSRVTISVDTSKNQFSLKLSSVTAADTAVYYCARFMGFGRPEYWGQGTLVTVSS VL: SSELTQDPAVSVALGQTVRITCQGDSLRTYYASWYQQKPGQAPVLVIYGKHKRPSGIPDRFSGSSSGNTASLTITGAQAEDEADYYCVSRAVVGNPHVLFGGGTQLTVL
3 |  | no binding (tested: 50 nM) | no binding (tested: 50 nM) | no binding (tested: 50 nM) | 1.24 | 1.21 | 1.09 | 1 | 3.8 | 0.224 | no binding (tested: 13 nM) | 0.107 | ~0.4 | ~0.9 | AbI (antibody, IgG1, V domains shown, As for AbA: IgG1/lambda, CDR3 graft, residue limits derived; also called VHP/VL24) VH: QVQLQESGPGLVKPSETLSLTCAVSGYSISSGYYWGWIRQPPGKGLEWIGSISHTGNTYYNPPLKSRVTISVDTSKNQFSLKLSSVTAADTAVYYCARGGGISRPEYWGQGTLVTVSS VL: SSELTQDPAVSVALGQTVRITCQGDSLRTYYASWYQQKPGQAPVLVIYGKHKRPSGIPDRFSGSSSGNTASLTITGAQAEDEADYYCIARSNKGNPHVLFGGGTQLTVL
4 |  | no binding (tested: 50 nM) | no binding (tested: 50 nM) | no binding (tested: 50 nM) | 1.45 | 1.51 | 1.26 | 0.68 | 4.25 | 0.227 |  |  | ~0.9 | ~1 | AbL (antibody, IgG1, V domains shown, As for AbA: IgG1/lambda, CDR3 graft, residue limits derived; also called VH3/VL13) VH: QVQLQESGPGLVKPSETLSLTCAVSGYSISSGYYWGWIRQPPGKGLEWIGSISHTGNTYYNPPLKSRVTISVDTSKNQFSLKLSSVTAADTAVYYCARFMGFGRPEYWGQGTLVTVSS VL: SSELTQDPAVSVALGQTVRITCQGDSLRTYYASWYQQKPGQAPVLVIYGKHKRPSGIPDRFSGSSSGNTASLTITGAQAEDEADYYCVTRNRYGNPHVLFGGGTQLTVL
5 | ~0.7 | no binding (tested: 50 nM) | no binding (tested: 50 nM) | no binding (tested: 50 nM) | 1.35 | 1.46 | 1 | 0.54 | 2.41 | 0.304 |  |  | ~0.5 | ~0.5 | AbF (antibody, IgG1, V domains shown, As for AbA: IgG1/lambda, CDR3 graft, residue limits derived; also called VHP/VL17) VH: QVQLQESGPGLVKPSETLSLTCAVSGYSISSGYYWGWIRQPPGKGLEWIGSISHTGNTYYNPPLKSRVTISVDTSKNQFSLKLSSVTAADTAVYYCARGGGISRPEYWGQGTLVTVSS VL: SSELTQDPAVSVALGQTVRITCQGDSLRTYYASWYQQKPGQAPVLVIYGKHKRPSGIPDRFSGSSSGNTASLTITGAQAEDEADYYCSTRSRKGNPHVLFGGGTQLTVL
